Measurements from article PMC3620054, “Lsb1 Is a Negative Regulator of Las17 Dependent Actin Polymerization Involved in Endocytosis” (PLoS ONE, 2013).

B1: SH3-Lsb2 (purified, GST cleaved off) (domain or fragment, S. cerevisiae, UniProt Q06449 59-110, looked up)
chain: VEALYQFDPQQDGDLGLKPGDKVQLLEKLSPEWYKGSCNGRTGIFPANYVKP
notes: Lsb2 (Pin3), S. cerevisiae, SH3 domain, residues 59-110, from pGEX4T-1; also called SH3 domain of Lsb2; source: E. coli BL21, purified (glutathione Sepharose, thrombin cleavage, size exclusion chromatography)
B2: Lsb1 (purified, GST cleaved off) (natural protein, S. cerevisiae, UniProt P53281 1-241, looked up)
chain: MSASLVNRSLKNIRNELEFLKESNVISGDIFELINSKLPEKWDGNQRSPQNADTEEYVEALYDFEAQQDGDLSLKTGDKIQVLEKISPDWYRGKSNNKIGIFPANYVKPAFTRSASPKSAEAASSSTVSRPSVPPPSYEPAASQYPSQQVSAPYAPPAGYMQAPPPQQQQAPLPYPPPFTNYYQQPQQQYAPPSQQAPVEAQPQQSSGASSAFKSFGSKLGNAAIFGAGSAIGSDIVNSIF
notes: Lsb1, S. cerevisiae, full-length, from pGEX4T-1; also called full-length Lsb1; source: E. coli BL21, purified (glutathione Sepharose, thrombin cleavage, size exclusion chromatography)
B3: Lsb2 (purified, GST cleaved off) (natural protein, S. cerevisiae, UniProt Q06449 1-215, looked up)
chain: MSASLINRSLTNIRTELDFLKGSNVISNDVYDQINKSLPAKWDPANAPRNASPASLEYVEALYQFDPQQDGDLGLKPGDKVQLLEKLSPEWYKGSCNGRTGIFPANYVKPAFSGSNGPSNLPPPPQYKAQELQQIPTQNSAASSYQQQPFPPPSTNYYQQPQQQPQQAPPPQQQQQQQQHQSSHSHLKSFGSKLGNAAIFGAGASIGSDIVNNIF
notes: Lsb2 (Pin3), S. cerevisiae, full-length, from pGEX4T-1; also called full-length Lsb2; Pin3; source: E. coli BL21, purified (glutathione Sepharose, thrombin cleavage, size exclusion chromatography)
B4: SH3-Lsb1 (purified, GST cleaved off) (domain or fragment, S. cerevisiae, UniProt P53281 57-109, looked up)
chain: YVEALYDFEAQQDGDLSLKTGDKIQVLEKISPDWYRGKSNNKIGIFPANYVKP
notes: Lsb1, S. cerevisiae, SH3 domain, residues 57-109, from pGEX4T-1; also called SH3 domain of Lsb1; source: E. coli BL21, purified (glutathione Sepharose, thrombin cleavage, size exclusion chromatography)

What follows are binders tested against T1, Las17 (purified recombinant) (S. cerevisiae, UniProt Q12446 1-633) (assay: SPR; Las17 coupled via an amino group to a CM5 chip, Biacore3000, 25°C, HBS-EP buffer, Lsb1, Lsb2 or their SH3 domains at 25 nM to 10 µM). Settings: both partners purified.
T1 construct: Las17, the WASP homolog of S. cerevisiae; also called WASP homolog; source: recombinant, purified, produced as reported [25], [45], [46]
T1 sequence (Q12446 whole entry, the tested form may be a part): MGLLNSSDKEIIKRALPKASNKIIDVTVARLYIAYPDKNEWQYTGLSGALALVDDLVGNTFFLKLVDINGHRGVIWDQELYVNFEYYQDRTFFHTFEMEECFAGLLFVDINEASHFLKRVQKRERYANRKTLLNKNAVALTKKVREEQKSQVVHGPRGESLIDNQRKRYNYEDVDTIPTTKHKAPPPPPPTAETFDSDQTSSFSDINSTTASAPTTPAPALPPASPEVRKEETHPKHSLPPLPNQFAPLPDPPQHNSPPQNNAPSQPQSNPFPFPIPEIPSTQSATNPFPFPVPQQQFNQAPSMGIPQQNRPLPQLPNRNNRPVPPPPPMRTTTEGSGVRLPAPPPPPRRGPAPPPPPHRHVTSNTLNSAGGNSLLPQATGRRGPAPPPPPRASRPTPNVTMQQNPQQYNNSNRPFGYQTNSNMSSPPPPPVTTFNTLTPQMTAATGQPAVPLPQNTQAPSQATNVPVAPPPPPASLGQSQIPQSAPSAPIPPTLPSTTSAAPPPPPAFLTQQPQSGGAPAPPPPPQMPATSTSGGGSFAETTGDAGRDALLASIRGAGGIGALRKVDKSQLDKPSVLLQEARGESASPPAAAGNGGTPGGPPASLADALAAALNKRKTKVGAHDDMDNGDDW

| Kd | Binder |
| --- | --- |
| 730 nM | B1 |
| 30 nM | B2 |
| 79 nM | B3 |
| 792 nM | B4 |
